Drawing on article PMC9068813, “Enhancer RNAs stimulate Pol II pause release by harnessing multivalent interactions to NELF”, this text covers binding result and Kd for five molecules.

What all share (settings): protein: recombinant; tags: His-tag (Ni-NTA purified); copies: 1;1;1;1
Series [1] concerns the target NELF double mutant (patch + ΔRRM) (UniProt Q9H3P2;Q8WX92;Q8IXH7;P18615 1-528;1-628;1-590;1-261+333-380, R291Q;K315M;K371M;K372M;K374M;K384M;K388M;R419Q;R506Q;internal_change). Nature of the series: EMSA (NELF release from PEC); large molar excess; 20 mM Na-HEPES pH 7.4, 100 mM NaCl, 25 mM KCl, 3 mM MgCl2, 2 mM DTT; assembly 30 °C, eRNA incubation 15-20 min at room temperature; 3.5% native PAGE 0.5x TBE at 4 °C; PEC about 0.1 µM NELF 0.15 µM. Background: In EMSA bound probe runs differently from free probe, usually more slowly.

The target of series [2] is T1, NELF-EΔRRM complex (NELFΔRRM) (UniProt Q9H3P2;Q8WX92;Q8IXH7;P18615 1-528;1-628;1-590;1-261+333-380, internal_change). Nature of the series: EMSA (NELF release from PEC); release not abolished; 20 mM Na-HEPES pH 7.4, 100 mM NaCl, 25 mM KCl, 3 mM MgCl2, 2 mM DTT; assembly 30 °C, eRNA incubation 15-20 min at room temperature; 3.5% native PAGE 0.5x TBE at 4 °C; PEC about 0.1 µM NELF 0.15 µM.
T1 sequence (Q9H3P2 whole entry, stated change not applied, chain 1 of 4): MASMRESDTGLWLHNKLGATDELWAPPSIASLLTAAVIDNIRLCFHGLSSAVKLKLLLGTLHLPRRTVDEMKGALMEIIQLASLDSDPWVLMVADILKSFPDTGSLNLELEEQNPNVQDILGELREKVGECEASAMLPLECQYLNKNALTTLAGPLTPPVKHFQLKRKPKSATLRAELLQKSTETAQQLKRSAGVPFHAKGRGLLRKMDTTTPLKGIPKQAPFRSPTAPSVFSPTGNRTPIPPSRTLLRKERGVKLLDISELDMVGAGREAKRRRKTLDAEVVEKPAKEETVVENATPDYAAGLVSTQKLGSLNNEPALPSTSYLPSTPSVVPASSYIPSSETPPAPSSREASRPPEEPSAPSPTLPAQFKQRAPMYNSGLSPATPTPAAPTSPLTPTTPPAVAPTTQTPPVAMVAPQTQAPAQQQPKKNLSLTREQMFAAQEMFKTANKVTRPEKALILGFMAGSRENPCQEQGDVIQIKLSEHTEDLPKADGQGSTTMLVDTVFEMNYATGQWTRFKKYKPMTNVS
T1 sequence (Q8WX92 other isoform, or with tags, fused parts or gaps | mutant, chain 2 of 4): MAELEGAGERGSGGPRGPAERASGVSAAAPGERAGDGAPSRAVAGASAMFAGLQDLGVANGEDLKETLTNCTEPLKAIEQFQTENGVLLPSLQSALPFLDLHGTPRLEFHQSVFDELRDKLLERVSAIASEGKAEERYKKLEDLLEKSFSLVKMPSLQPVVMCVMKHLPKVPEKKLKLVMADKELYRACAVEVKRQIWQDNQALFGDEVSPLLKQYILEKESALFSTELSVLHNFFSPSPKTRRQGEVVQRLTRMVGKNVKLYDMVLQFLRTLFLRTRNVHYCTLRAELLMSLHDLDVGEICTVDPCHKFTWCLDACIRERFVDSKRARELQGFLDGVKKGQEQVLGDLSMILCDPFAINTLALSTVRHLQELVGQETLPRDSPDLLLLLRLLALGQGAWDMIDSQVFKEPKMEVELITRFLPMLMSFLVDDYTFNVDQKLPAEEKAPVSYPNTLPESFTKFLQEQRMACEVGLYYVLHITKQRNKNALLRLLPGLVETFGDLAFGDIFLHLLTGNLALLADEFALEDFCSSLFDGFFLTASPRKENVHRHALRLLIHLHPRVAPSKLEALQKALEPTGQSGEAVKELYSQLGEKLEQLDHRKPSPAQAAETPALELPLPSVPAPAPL
T1 sequence (Q8IXH7 whole entry, stated change not applied, chain 3 of 4): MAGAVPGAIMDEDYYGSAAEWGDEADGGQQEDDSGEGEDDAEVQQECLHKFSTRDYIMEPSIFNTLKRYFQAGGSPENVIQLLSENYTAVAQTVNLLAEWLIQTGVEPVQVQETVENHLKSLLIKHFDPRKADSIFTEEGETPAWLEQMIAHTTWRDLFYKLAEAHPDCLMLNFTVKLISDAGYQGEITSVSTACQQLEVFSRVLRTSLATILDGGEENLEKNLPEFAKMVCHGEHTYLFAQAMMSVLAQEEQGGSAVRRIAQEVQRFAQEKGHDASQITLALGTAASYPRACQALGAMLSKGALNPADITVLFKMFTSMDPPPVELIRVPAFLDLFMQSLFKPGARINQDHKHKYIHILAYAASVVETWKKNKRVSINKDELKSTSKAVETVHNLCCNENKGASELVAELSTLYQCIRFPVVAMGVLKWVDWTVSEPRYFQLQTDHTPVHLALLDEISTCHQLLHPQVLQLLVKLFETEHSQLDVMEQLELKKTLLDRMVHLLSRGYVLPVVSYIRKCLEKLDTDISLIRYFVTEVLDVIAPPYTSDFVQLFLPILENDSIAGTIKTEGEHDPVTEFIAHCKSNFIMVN
T1 sequence (P18615 other isoform, or with tags, fused parts or gaps | mutant, chain 4 of 4): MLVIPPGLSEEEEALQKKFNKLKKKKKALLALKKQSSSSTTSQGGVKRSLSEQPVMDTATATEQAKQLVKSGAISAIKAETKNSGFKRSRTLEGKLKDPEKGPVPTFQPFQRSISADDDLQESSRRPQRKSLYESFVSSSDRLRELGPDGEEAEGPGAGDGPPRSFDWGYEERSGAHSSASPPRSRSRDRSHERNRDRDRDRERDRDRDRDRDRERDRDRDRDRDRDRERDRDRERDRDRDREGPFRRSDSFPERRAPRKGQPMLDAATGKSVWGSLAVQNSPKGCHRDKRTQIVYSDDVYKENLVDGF

Series [3] addresses T1, NELF-EΔRRM complex (NELFΔRRM). Nature of the series: EMSA (NELF release from PEC); apparent Kd; NELF in PEC on N1; 20 mM Na-HEPES pH 7.4, 100 mM NaCl, 25 mM KCl, 3 mM MgCl2, 2 mM DTT; assembly 30 °C, eRNA incubation 15-20 min at room temperature; 3.5% native PAGE 0.5x TBE at 4 °C; PEC about 0.1 µM NELF 0.15 µM.

NELF double mutant (patch + ΔRRM), sequence (Q9H3P2 whole entry, stated change not applied, chain 1 of 4): as the sequence (Q9H3P2 whole entry, stated change not applied, chain 1 of 4) above
NELF double mutant (patch + ΔRRM), sequence (Q8WX92 other isoform, or with tags, fused parts or gaps with the stated changes, chain 2 of 4): as the sequence (Q8WX92 other isoform, or with tags, fused parts or gaps | mutant, chain 2 of 4) above
NELF double mutant (patch + ΔRRM), sequence (Q8IXH7 whole entry R291Q/K315M/K371M/K372M/K374M/K384M/K388M/R419Q/R506Q, chain 3 of 4): as the sequence (Q8IXH7 whole entry, stated change not applied, chain 3 of 4) above, with R291Q, K315M, K371M, K372M, K374M, K384M, K388M, R419Q, R506Q counted along it
NELF double mutant (patch + ΔRRM), sequence (P18615 other isoform, or with tags, fused parts or gaps with the stated changes, chain 4 of 4): as the sequence (P18615 other isoform, or with tags, fused parts or gaps | mutant, chain 4 of 4) above

B1: Nr4a1-(b) eRNA 1-200 (structured_RNA)
RNA: AGUAGGGGCAUGGCUCGCCCGAGGCUCGGUGCUGCCCCGCCGCCCGCCGCGUUCCUUCCGGCUUGGUGUUCCGGUGGCGGGACCAGGGAAGGGAAGCUCGGGCCAAAUCCGGUCUCGGGCGAGGUGACAGAAAUUUGGAAUCUGACACCGGAGGAUGGCUGAGCUCCGGCUCCUCUGGGAGUGCAAUUACGGACUUCGCA
As for B1, the binding result in series [1] is on record as “no binding”.

B2: Nr4a1-(a) eRNA 1-100 (structured_RNA)
RNA: GCGGUGAGAGUGAUUUUGUAACUCUAAAGUUACAGAGGGUUUUGUUGUGUUUUUAAUCAAGAGCCCUGGUUUUGAUUUGUGGGUAAUCUUUCUUUAAACC
For B2, the binding result in series [2] is “binds”.

B3: Nr4a1-(a) eRNA 1-200 (structured_RNA)
RNA: GCGGUGAGAGUGAUUUUGUAACUCUAAAGUUACAGAGGGUUUUGUUGUGUUUUUAAUCAAGAGCCCUGGUUUUGAUUUGUGGGUAAUCUUUCUUUAAACCUCGCCCAUUUCCGGCCUGGUGACCUGGGCCACUUUCUCAUGUUGACCCAGAUGAUCCUCAGUAGCAAGAACAAAAGGACAACAGAUGUGGAAACACUCAA
On to B3, for which the binding result in series [1] is recorded as “no binding”.

B4: Arc eRNA 1-200 (structured_RNA)
RNA: AAAACACAGCCGCCAGGGUGGGGGUGGCAGCCUUGAACGCCACCCUCUAACUGGCAUGGGCAUCUGAACUCUCAGCUCUGGGGGUGUCUCAUCGGCCAGCUGGCAGUAGCCCCCCCAACCCCACCCCUGAUGGAGAACUGCUCCUGUAUGAUCCAGCCCAGUGGGCGCACAGGGAGUUGGUAGGUGGGCACUCAGACUGG
For the molecule B4, the binding result in series [1] is given as “no binding”. Moreover, the Kd in series [3] was 0.33 µM.

B5: Arc eRNA 1-100 (structured_RNA)
RNA: AAAACACAGCCGCCAGGGUGGGGGUGGCAGCCUUGAACGCCACCCUCUAACUGGCAUGGGCAUCUGAACUCUCAGCUCUGGGGGUGUCUCAUCGGCCAGC
Consider B5, for which the Kd in series [3] is 7.8 µM.
